Results from publication PMC5639704.

What follows are substances tested against Human TRF2^TRFH (residues 42-245) (human) (assay: ITC).

Point of comparison: WT mNBS1 peptide, Kd 19.8 µM. Against it:
- WT hNBS1 peptide (423–438) (from UniProt O60934 423-438) — within 1.5-fold, 17 µM
- hNBS1^S432A peptide (423–438) (from UniProt O60934 423-438) — within 1.5-fold, 16 µM
- mNBS1^S433A peptide — within 1.5-fold, 21.7 µM
